Results published in the supplement of paper PMC9732359.
± gives the uncertainty stated by the source.

Experiment: protein stability index of a GFP-peptide fusion (yeast GPS) (PSI 1-4); higher = more stable; sorted into four equal gates, so the index is relative within each strain
Summary of the method: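 Tiled 17-residue peptides from yeast proteins were fused downstream of GFP on a plasmid that also expresses Cherry, and the pooled library was carried in yeast. Mid-log cultures grown in leucine-free medium were sorted into four equal gates by GFP/Cherry fluorescence ratio. Plasmids from each gate were PCR-amplified and Illumina-sequenced, and reads were assigned to strains by barcodes. Each peptide's protein stability index is the sum, over gates, of the gate's read frequency multiplied by its gate number.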

Sequence | protein stability index (doa10∆) | protein stability index (pdr5∆) | protein stability index (san1∆) | protein stability index (ubr1∆)
EATLESKLKEEEAALLI [ESC2] | 2.86 ± 0.067 | 3.05 ± 0.058 | 2.88 ± 0.038 | 2.91 ± 0.05
KEQENITIQDLLFPKST [DPB4] | 3.05 ± 0.1 | 2.64 ± 0.13 | 2.52 ± 0.087 | 2.75 ± 0.086
LEHVLLVPTASFFIASQ [FAS1] | 1.25 ± 0.033 | 1.46 ± 0.038 | 1.45 ± 0.064 | 1.31 ± 0.027
PKGATYGKPTNQGVNEL [RPL15A] | 3.02 ± 0.1 | 3.22 ± 0.085 | 3.2 ± 0.054 | 3.29 ± 0.044
ELRRFESSINTHPHAAD [SKI6] | 2.73 ± 0.081 | 3.08 ± 0.054 | 2.56 ± 0.064 | 2.87 ± 0.055
IFALCIYNSTDSNSEIL [YML103C/NUP188] | 1.39 ± 0.17 | 2.19 ± 0.075 | 1.87 ± 0.14 | 1.95 ± 0.086
EWFEQNNSEQDQEIVIQ [ISW2] | 3.04 ± 0.13 | 3.19 ± 0.14 | 2.45 ± 0.18 | 3.25 ± 0.093
GFGILEDGMIIDVNLNF [RRP40] | 3.08 ± 0.089 | 3.21 ± 0.075 | 3.19 ± 0.089 | 3.02 ± 0.076
KKVTAFVPNDGCLNFVD [RPS23A] | 2.88 ± 0.054 | 3.17 ± 0.046 | 3.11 ± 0.032 | 2.85 ± 0.035
AIGYEPLSLTHRDKNKM [DIS3] | 2.83 ± 0.058 | 2.9 ± 0.061 | 2.88 ± 0.063 | 2.93 ± 0.042
GNPVNDANLLGAEVLIK [COR1] | 2.56 ± 0.086 | 3.02 ± 0.093 | 2.63 ± 0.075 | 2.89 ± 0.035
KTAMAELALLNHWRQNK [BRR2] | 1.39 ± 0.082 | 1.79 ± 0.12 | 1.26 ± 0.17 | 1.88 ± 0.062
LQCISQINQGVPSAKPL [SNF11] | 2.98 ± 0.092 | 1.95 ± 0.081 | 2.5 ± 0.083 | 2.41 ± 0.074
VQSQVDSSSVSEDSAVF [FAS1] | 3.11 ± 0.072 | 3.33 ± 0.08 | 3.12 ± 0.047 | 3.29 ± 0.049
VELIESKINELSYYVEE [SMC4] | 3.29 ± 0.12 | 3.42 ± 0.082 | 3.28 ± 0.1 | 3.4 ± 0.083
PFGAKSTKSNKTRNPLT [RPL8A] | 2.73 ± 0.072 | 2.99 ± 0.062 | 2.88 ± 0.057 | 2.8 ± 0.056
KVEKGVNIEPFNIDDEI [LIN1] | 3.52 ± 0.14 | 3 ± 0.21 | 3.45 ± 0.14 | 3.49 ± 0.076
AFGGSATTGGGLFGNKP [YGL172W/NUP49] | 3.26 ± 0.091 | 2.7 ± 0.26 | – | 3.16 ± 0.12
LPNETINDRNDRAIRKT [DIS3] | – | – | – | 2.29 ± 0.11
TKKTITPMGGFVHYGEI [RPL3] | 3.2 ± 0.074 | 3.1 ± 0.072 | 3.08 ± 0.093 | 3.01 ± 0.046
EFLYSKAGREELERVNV [QCR8] | – | – | 3.28 ± 0.11 | 3.27 ± 0.17
GSLSGNSSSMEEVMRIA [ESC2] | 2.9 ± 0.074 | 2.88 ± 0.11 | 2.45 ± 0.12 | 2.73 ± 0.083
ENSIGYNNRKCWPKDSR [PRP8] | 3.08 ± 0.16 | 2.95 ± 0.18 | – | 2.87 ± 0.29
AAQTNATFLKLAAPQLV [RPT5] | 2.62 ± 0.16 | 3.17 ± 0.15 | 2.41 ± 0.083 | 2.86 ± 0.11
SLLLTNVIITGSTSLIE [ARP7] | 1.54 ± 0.033 | 1.6 ± 0.034 | 1.66 ± 0.051 | 1.39 ± 0.028
QLDFTEFDEQYGTRPLV [SNF2] | 3.26 ± 0.048 | 3.02 ± 0.047 | 3.21 ± 0.039 | 2.81 ± 0.032
NLTRGINLRKVAEKMNG [RPT6] | 1.63 ± 0.069 | 1.47 ± 0.05 | 2.31 ± 0.052 | 1.28 ± 0.044
VIRDSVTYTEHAKRKTV [HHF1] | 1.8 ± 0.081 | 1.4 ± 0.074 | 1.44 ± 0.12 | 2.03 ± 0.051
